Test results: patent US20250270332A1

Target: FZD1/2/4/5/7/8
Test: cell-based or functional assay

- % Wnt Maxima Avg: 42%
- EC50 (nM), TOPFLASH assay: 0.4 nM
- Maximal Signal (% Wnt3a maxima) (% Wnt3a maxima): 42
- Topflash EC50 (nM) Avg: 0.4 nM
B1: CT0003 (bispecific antibody)
chain 1: MNLLLILTFVAAAVAEFEVQLVESGGGLVQPGGSLRLSCAASGFNISSYYIHWVRQAPGKGLEWVASIYSSYGYTSYADSVKGRFTISADTSKNTAYLQMNSLRAEDTAVYYCARTVRGSKKPYFSGWAMDYWGQGTLVTVSSGGGGSDIQMTQSPSSLSASVGDRVTITCRASQSVSSAVAWYQQKPGKAPKLLIYSASSLYSGVPSRFSGSRSGTDFTLTISSLQPEDFATYYCQQYSWGPFTFGQGTKVEIKLEDKTHTKVEPKSSDKTHNCPPCPAPELLGGPSVFLFPPKPKDTLMISRTPEVTCVVVDVSHEDPEVKFNWYVDGVEVHNAKTKPREEQYNSTYRVVSVLTVLHQDWLNGKEYKCKVSNKALPAPIEKTISKAKGQPREPQVYTLPPIRELMTSNQVSLSCAVKGFYPSDIAVEWESNGQPENNYKTTPPVLDSDGSFFLVSKLTVDKSRWQQGNVFSCSVMHEALHNHYTQKSLSLSPGKSGSETPGTSESATPESGGGEVQLVESGGGLVQPGGSLRLSCAASGFNIHSSSIHWVRQAPGKGLEWVAATYSSFGSITYADSVKGRFTISADTSKNTAYLQMNSLRAEDTAVYYCARYHHPFGYALDYWGQGTLVTVSSGTTAASGSSGGSSSGADIQMTQSPSSLSASVGDRVTITCRASQSVSSAVAWYQQKPGKAPKLLIYSASSLYSGVPSRFSGSRSGTDFTLTISSLQPEDFATYYCQQGVYLFTFGQGTKVEIK
chain 2: MNLLLILTFVAAAVAEFEVQLVESGGGLVQPGGSLRLSCAASGFNISYSSIHWVRQAPGKGLEWVAYISSYYGYTYYADSVKGRFTISADTSKNTAYLQMNSLRAEDTAVYYCARAHYFPWAGAMDYWGQGTLVTVSSGGGGDIQMTQSPSSLSASVGDRVTITCRASQSVSSAVAWYQQKPGKAPKLLIYSASSLYSGVPSRFSGSRSGTDFTLTISSLQPEDFATYYCQQYYWPITFGQGTKVEIKLEDKTHTKVEPKTSDKTHTCPPCPAPELLGGPSVFLFPPKPKDTLMISRTPEVTCVVVDVSHEDPEVKFNWYVDGVEVHNAKTKPREEQYNSTYRVVSVLTVLHQDWLNGKEYKCKVSNKALPAPIEKTISKAKGQPREPMVFDLPPSREEMTKNQVSLWCMVKGFYPSDIAVEWESNGQPENNYKTTPPVLDSDGSFFLYSKLTVDKSRWQQGNVFSCSVMHEALHNHYTQKSLSLSPGKSGSETPGTSESATPESGGGEVQLVESGGGLVQPGGSLRLSCAASGFNIHSSSIHWVRQAPGKGLEWVAATYSSFGSITYADSVKGRFTISADTSKNTAYLQMNSLRAEDTAVYYCARYHHPFGYALDYWGQGTLVTVSSGTTAASGSSGGSSSGADIQMTQSPSSLSASVGDRVTITCRASQSVSSAVAWYQQKPGKAPKLLIYSASSLYSGVPSRFSGSRSGTDFTLTISSLQPEDFATYYCQQGVYLFTFGQGTKVEIK
